# Numbering of substitutions follows the chain as printed. Names and notes keep the numbering of the source.
# B1: Vika recombinase monomer with K219R mutation (protein)
# chain: MTDLTPFPPLEHLEPDEFADLVRKAIKRDPQAGAHPAIQSAISHFQDEFVRRQGEWQPATLQRLRNAWNVFVRWCTHQGIPALPARHQDVERYLIERRNELHRNTLKVHLWAIGKTHVISGLPNPCAHRYVKAQMAQITHQKVRERERIEQAPAFRESDLDRLTELWSATRSVTQQRDLMIVSLAYETLLRKNNLEQMKVGDIEFCQDGSALITIPFSRTNHSGRDDVRWISPQVANQVHAYLQLPNIDADPQCFLLQRVKRSGKALNPESHNTLNGHHPVSEKLISRVFERAWRALNHETGPRYTGHSARVGAAQDLLQEGYSTLQVMQAGGWSSEKMVLRYGRHLHAHTSAMAQKRRQR
# B2: Cre recombinase monomer with E129R mutation (protein)
# chain: MSNLLTVHQNLPALPVDATSDEVRKNLMDMFRDRQAFSEHTWKMLLSVCRSWAAWCKLNNRKWFPAEPEDVRDYLLYLQARGLAVKTIQQHLGQLNMLHRRSGLPRPSDSNAVSLVMRRIRKENVDAGRRAKQALAFERTDFDQVRSLMENSDRCQDIRNLAFLGIAYNTLLRIAEIARIRVKDISRTDGGRMLIHIGRTKTLVSTAGVEKALSLGVTKLVERWISVSGVADDPNNYLFCRVRKNGVAAPSATSQLSTRALEGIFEATHRLIYGAKDDSGQRYLAWSGHSARVGAARDMARAGVSIPEIMQAGGWTNVNIVMNYIRNLDSETGAMVRLLEDGD
# B3: Cre recombinase monomer with R173G mutation (protein)
# chain: B2 chain with R129E, R173G
# B4: Cre recombinase monomer with R173F mutation (protein)
# chain: B2 chain with R129E, R173F
# Tests used:
# [1] = target: T1, Vika recombinase monomer with Q330R mutation
# T1 chain: B1 chain with R219K, Q330R
# [2] = target: T2, Cre recombinase monomer with Q311R mutation
# T2 chain: B2 chain with R129E, Q311R
# [3] = target: T3, Cre recombinase monomer with W315N mutation
# T3 chain: B2 chain with R129E, W315N
# [4] = target: T4, Cre recombinase monomer with K201N mutation
# T4 chain: B2 chain with R129E, K201N
# [5] = target: T5, Cre recombinase monomer with K201R mutation
# T5 chain: B2 chain with R129E, K201R
# [6] = target: T6, Cre recombinase monomer with Y324T mutation
# T6 chain: B2 chain with R129E, Y324T
# [7] = target: T7, Cre recombinase monomer with K201Y mutation
# T7 chain: B2 chain with R129E, K201Y
# [8] = target: T8, Cre recombinase monomer with E176Y mutation
# T8 chain: B2 chain with R129E, E176Y
# [9] = target: T9, Cre recombinase monomer with K201Q mutation
# T9 chain: B2 chain with R129E, K201Q
# [10] = target: T10, Cre recombinase monomer with E176M mutation
# T10 chain: B2 chain with R129E, E176M
# [11] = target: T11, Cre recombinase monomer with E176V mutation
# T11 chain: B2 chain with R129E, E176V
# [12] = target: T12, Cre recombinase monomer with E176W mutation
# T12 chain: B2 chain with R129E, E176W
# [13] = target: T13, Cre recombinase monomer with E176I mutation
# T13 chain: B2 chain with R129E, E176I
protein,measurement,setting,value
B1,recombination on vox excision substrate in E. coli,[1],A similar activity profile (although with some loss of activity) was seen when Vika^K219R and Vika^Q330R were co-expressed on the vox target sequence
B2,Median dimer activity (recombination on loxP),[2],93%
same,Median dimer activity (recombination on loxP),[3],30%
same,Median dimer activity (recombination on loxP),[4],35%
same,Median dimer activity (recombination on loxP),[5],26%
B3,Median dimer activity (recombination on loxP),[2],95%
same,Median dimer activity (recombination on loxP),[6],32%
same,Median dimer activity (recombination on loxP),[7],95%
B4,Median dimer activity (recombination on loxP),[8],40%
same,Median dimer activity (recombination on loxP),[9],39%
same,Median dimer activity (recombination on loxP),[2],84%
same,Median dimer activity (recombination on loxP),[10],38%
same,Median dimer activity (recombination on loxP),[11],82%
same,Median dimer activity (recombination on loxP),[12],30%
same,Median dimer activity (recombination on loxP),[13],25%

# — patent publication US20230183713A1, “SITE-SPECIFIC RECOMBINASES FOR EFFICIENT AND SPECIFIC GENOME EDITING” (TECHNISCHE UNIVERSITÄt DRESDEN, published 2023)
